# Laboratory results as given in PMC6588657 (2018).
# B1: full-length, C-terminal, Flag-tagged human Lnp [human] / Myc-ATL3 [human] (parent complex)
# chain 1: MGGLFSRWRTKPSTVEVLESIDKEIQALEEFREKNQRLQKLWVGRLILYSSVLYLFTCLIVYLWYLPDEFTARLAMTLPFFAFPLIIWSIRTVIIFFFSKRTERNNEALDDLKSQRKKILEEVMEKETYKTAKLILERFDPDSKKAKECEPPSAGAAVTARPGQEIRQRTAAQRNLSPTPASPNQGPPPQVPVSPGPPKDSSAPGGPPERTVTPALSSNVLPRHLGSPATSVPGMGLHPPGPPLARPILPRERGALDRIVEYLVGDGPQNRYALICQQCFSHNGMALKEEFEYIAFRCAYCFFLNPARKTRPQAPRLPEFSFEKRQVVEGSSSVGPLPSGSVLSSDNQFNEESLEHDVLDDNTEQTDDKIPATEQTNQVIEKASDSEEPEEKQETENEEASVIETNSTVPGADSIPDPELSGESLTAE
# chain 2: MLSPQRVAAAASRGADDAMESSKPGPVQVVLVQKDQHSFELDEKALASILLQDHIRDLDVVVVSVAGAFRKGKSFILDFMLRYLYSQKESGHSNWLGDPEEPLTGFSWRGGSDPETTGIQIWSEVFTVEKPGGKKVAVVLMDTQGAFDSQSTVKDCATIFALSTMTSSVQIYNLSQNIQEDDLQQLQLFTEYGRLAMDEIFQKPFQTLMFLVRDWSFPYEYSYGLQGGMAFLDKRLQVKEHQHEEIQNVRNHIHSCFSDVTCFLLPHPGLQVATSPDFDGKLKDIAGEFKEQLQALIPYVLNPSKLMEKEINGSKVTCRGLLEYFKAYIKIYQGEDLPHPKSMLQATAEANNLAAAASAKDIYYNNMEEVCGGEKPYLSPDILEEKHCEFKQLALDHFKKTKKMGGKDFSFRYQQELEEEIKELYENFCKHNGSKNVFSTFRTPAVLFTGIVALYIASGLTGFIGLEVVAQLFNCMVGLLLIALLTWGYIRYSGQYRELGGAIDFGAAYVLEQASSHIGNSTQATVRDAVVGRPSMDKKAQ
# Variants of: B1
# Assay: co-immunoprecipitation; COS-7 cell lysates containing 1% Triton X-100; anti-Flag antibody-conjugated agarose; band quantification by Image J; parent: 1
row,Variant,ratio to parent
1,"chain 1 MGGLFSRWRTKPSTVEVLESIDKEDQADEEFREKNQRLQKLWVGRLILYSSVLYLFTCLIVYLWYLPDEFTARLAMTLPFFAFPLIIWSIRTVIIFFFSKRTERNNEALDDLKSQRKKILEEVMEKETYKTAKLILERFDPDSKKAKECEPPSAGAAVTARPGQEIRQRTAAQRNLSPTPASPNQGPPPQVPVSPGPPKDSSAPGGPPERTVTPALSSNVLPRHLGSPATSVPGMGLHPPGPPLARPILPRERGALDRIVEYLVGDGPQNRYALICQQCFSHNGMALKEEFEYIAFRCAYCFFLNPARKTRPQAPRLPEFSFEKRQVVEGSSSVGPLPSGSVLSSDNQFNEESLEHDVLDDNTEQTDDKIPATEQTNQVIEKASDSEEPEEKQETENEEASVIETNSTVPGADSIPDPELSGESLTAE [chain 1 I25D, chain 1 L28D]",0.26
2,chain 1 MGGLFSRWRTKPSTVEVLESIDKEIQADEEFREKNQRLQKLWVGRLILYSSVLYLFTCLIVYLWYLPDEFTARLAMTLPFFAFPLIIWSIRTVIIFFFSKRTERNNEALDDLKSQRKKILEEVMEKETYKTAKLILERFDPDSKKAKECEPPSAGAAVTARPGQEIRQRTAAQRNLSPTPASPNQGPPPQVPVSPGPPKDSSAPGGPPERTVTPALSSNVLPRHLGSPATSVPGMGLHPPGPPLARPILPRERGALDRIVEYLVGDGPQNRYALICQQCFSHNGMALKEEFEYIAFRCAYCFFLNPARKTRPQAPRLPEFSFEKRQVVEGSSSVGPLPSGSVLSSDNQFNEESLEHDVLDDNTEQTDDKIPATEQTNQVIEKASDSEEPEEKQETENEEASVIETNSTVPGADSIPDPELSGESLTAE [chain 1 L28D],0.34
3,chain 1 MGGLFSRWRTKPSTVEVLESIDKEDQALEEFREKNQRLQKLWVGRLILYSSVLYLFTCLIVYLWYLPDEFTARLAMTLPFFAFPLIIWSIRTVIIFFFSKRTERNNEALDDLKSQRKKILEEVMEKETYKTAKLILERFDPDSKKAKECEPPSAGAAVTARPGQEIRQRTAAQRNLSPTPASPNQGPPPQVPVSPGPPKDSSAPGGPPERTVTPALSSNVLPRHLGSPATSVPGMGLHPPGPPLARPILPRERGALDRIVEYLVGDGPQNRYALICQQCFSHNGMALKEEFEYIAFRCAYCFFLNPARKTRPQAPRLPEFSFEKRQVVEGSSSVGPLPSGSVLSSDNQFNEESLEHDVLDDNTEQTDDKIPATEQTNQVIEKASDSEEPEEKQETENEEASVIETNSTVPGADSIPDPELSGESLTAE [chain 1 I25D],0.32
